# T1: Pcf1-KER*;Pcf2;Pcf3 (Schizosaccharomyces …, UniProt Q1MTN9;O13985;Q9Y825 1-544;1-512;1-408, R147E;K150E;K154E;R161E;K168E||)
# T1 sequence 1: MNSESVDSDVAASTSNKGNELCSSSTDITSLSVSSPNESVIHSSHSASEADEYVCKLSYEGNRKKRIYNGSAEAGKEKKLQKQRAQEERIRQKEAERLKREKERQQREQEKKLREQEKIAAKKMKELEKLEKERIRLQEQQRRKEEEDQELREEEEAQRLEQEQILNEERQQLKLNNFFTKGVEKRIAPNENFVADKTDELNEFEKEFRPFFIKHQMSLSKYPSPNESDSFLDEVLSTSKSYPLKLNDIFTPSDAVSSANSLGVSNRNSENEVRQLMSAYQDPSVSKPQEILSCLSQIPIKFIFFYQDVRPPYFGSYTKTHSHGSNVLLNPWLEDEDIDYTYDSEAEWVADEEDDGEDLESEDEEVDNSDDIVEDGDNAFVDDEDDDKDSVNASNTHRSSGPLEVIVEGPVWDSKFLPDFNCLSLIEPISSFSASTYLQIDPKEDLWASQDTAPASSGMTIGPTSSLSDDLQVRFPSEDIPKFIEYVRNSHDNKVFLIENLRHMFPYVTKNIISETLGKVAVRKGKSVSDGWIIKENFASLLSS
# T1 sequence 2: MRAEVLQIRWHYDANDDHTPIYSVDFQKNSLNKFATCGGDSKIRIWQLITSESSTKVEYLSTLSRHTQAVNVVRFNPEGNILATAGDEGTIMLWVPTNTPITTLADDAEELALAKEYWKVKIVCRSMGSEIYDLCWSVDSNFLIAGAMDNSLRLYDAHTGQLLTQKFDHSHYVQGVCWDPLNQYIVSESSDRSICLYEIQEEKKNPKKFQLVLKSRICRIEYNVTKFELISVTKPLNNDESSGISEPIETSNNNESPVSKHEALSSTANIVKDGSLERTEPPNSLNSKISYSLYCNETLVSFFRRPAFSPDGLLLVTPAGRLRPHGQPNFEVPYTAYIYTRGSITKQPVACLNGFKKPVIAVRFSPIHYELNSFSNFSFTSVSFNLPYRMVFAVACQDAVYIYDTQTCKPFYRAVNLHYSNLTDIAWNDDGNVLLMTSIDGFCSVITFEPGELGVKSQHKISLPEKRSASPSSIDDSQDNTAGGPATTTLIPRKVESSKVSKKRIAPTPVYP
# T1 sequence 3: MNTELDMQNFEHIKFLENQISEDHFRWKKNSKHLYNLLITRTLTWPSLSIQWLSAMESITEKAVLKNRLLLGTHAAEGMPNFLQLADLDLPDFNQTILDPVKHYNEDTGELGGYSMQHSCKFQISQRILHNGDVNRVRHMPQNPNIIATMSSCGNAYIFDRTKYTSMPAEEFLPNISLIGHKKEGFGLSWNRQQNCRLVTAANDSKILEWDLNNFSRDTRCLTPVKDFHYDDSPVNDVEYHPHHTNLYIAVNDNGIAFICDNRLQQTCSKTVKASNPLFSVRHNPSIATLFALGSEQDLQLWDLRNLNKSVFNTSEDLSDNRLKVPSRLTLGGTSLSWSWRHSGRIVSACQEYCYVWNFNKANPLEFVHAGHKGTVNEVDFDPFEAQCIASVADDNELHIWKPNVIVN
# T2: Pcf1_WHD (Schizosaccharomyces pombe, UniProt Q1MTN9 471-544)
# T2 sequence: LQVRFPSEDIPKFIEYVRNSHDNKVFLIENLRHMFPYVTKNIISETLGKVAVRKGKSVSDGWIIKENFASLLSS
# T3: Pcf1-ΔWHD;Pcf2;Pcf3 (Schizosaccharomyces …, UniProt Q1MTN9;O13985;Q9Y825 1-470;1-512;1-408, del471-544||)
# T3 sequence 1: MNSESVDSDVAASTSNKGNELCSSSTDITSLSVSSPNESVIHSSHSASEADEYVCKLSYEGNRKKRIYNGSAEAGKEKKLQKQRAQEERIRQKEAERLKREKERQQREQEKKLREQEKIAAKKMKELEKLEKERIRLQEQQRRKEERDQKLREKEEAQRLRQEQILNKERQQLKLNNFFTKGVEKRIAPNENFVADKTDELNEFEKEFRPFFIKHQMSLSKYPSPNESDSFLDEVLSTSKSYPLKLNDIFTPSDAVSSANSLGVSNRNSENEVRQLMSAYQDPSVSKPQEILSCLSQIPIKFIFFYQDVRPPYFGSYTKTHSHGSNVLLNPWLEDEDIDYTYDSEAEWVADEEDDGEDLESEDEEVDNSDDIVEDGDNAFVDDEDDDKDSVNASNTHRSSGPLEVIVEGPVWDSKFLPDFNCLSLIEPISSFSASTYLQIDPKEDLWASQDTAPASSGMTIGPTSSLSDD
# T3 sequence 2: T1 sequence 2
# T3 sequence 3: T1 sequence 3
# T4: Pcf1_KER (Schizosaccharomyces pombe, UniProt Q1MTN9 56-170)
# T4 sequence: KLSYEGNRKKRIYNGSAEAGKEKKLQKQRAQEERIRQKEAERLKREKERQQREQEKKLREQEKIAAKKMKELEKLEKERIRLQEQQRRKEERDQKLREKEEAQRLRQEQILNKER
# B1: 40 bp dsDNA, Alexa488 (dsDNA)
# DNA 1: ATCAATATCCACCTGCAGATACTACCAAAAGTGTATTTGG
# DNA 2: CCAAATACACTTTTGGTAGTATCTGCAGGTGGATATTGAT
# Key:
# Test in all cases: MST
# [1] = target: T1, Pcf1-KER*;Pcf2;Pcf3
# [2] = target: T2, Pcf1_WHD
# [3] = target: T3, Pcf1-ΔWHD;Pcf2;Pcf3
# [4] = target: T4, Pcf1_KER
binder,measurement,setting,value
B1,apparent K (half saturation),[1],2800 ± 400 nM
same,binding result,[2],no binding
same,apparent K (half saturation),[3],700 ± 100 nM
same,apparent K (half saturation),[4],1100 ± 200 nM
